{"source": "paper PMC3094495", "key": {"[1]": {"molecular_target": "N15 Cro (Escherichia phage N15) (UniProt P03040)", "details": "cited from earlier work"}, "[2]": {"molecular_target": "bacteriophage N15 Cro (bacteriophage N15)", "experiment": "native MS"}, "[3]": {"molecular_target": "λ Cro (Escherichia phage lambda) (UniProt P03040)", "details": "cited from earlier work"}, "[4]": {"molecular_target": "T1, bacteriophage λ Cro (bacteriophage λ), P03040", "T1 chain": "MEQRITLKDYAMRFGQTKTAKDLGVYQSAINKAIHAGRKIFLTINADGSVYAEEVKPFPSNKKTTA", "experiment": "native MS", "details": "remark: other sources report otherwise"}}}
{"molecule": "N15 Cro (from UniProt P03040)", "values": [{"measurement": "Kd", "setting": "[1]", "result": 5, "unit": "µM"}]}
{"molecule": "bacteriophage N15 Cro (natural protein)", "values": [{"measurement": "stoichiometry N", "setting": "[2]", "result": 2}]}
{"molecule": "λ Cro (from UniProt P03040)", "values": [{"measurement": "Kd", "setting": "[3]", "result": 3, "unit": "µM"}]}
{"molecule": "bacteriophage λ Cro, P03040 1-66 (natural protein) MEQRITLKDYAMRFGQTKTAKDLGVYQSAINKAIHAGRKIFLTINADGSVYAEEVKPFPSNKKTTA", "values": [{"measurement": "stoichiometry N", "setting": "[4]", "result": 2}]}
